Experimental data from the DeepSol protein solubility set.

test: soluble on expression in E. coli; label from the status in PepcDB or PDB records

Question: For “GPGSMANGVTANSMRVNVKAPDLGAFPLDHYSECKSQVEAYYRCLKSNEYVTPLCRDQMREYLQCRMDRGLMKPADLDGFGIPKTEFVPTRQHRIDLKQQWLRQKMNQVTVVWEENYRRDDLQVPDGYEREKGGGDGGGGNPKPVGEKVNT”, which “soluble on expression in E. coli” value is on record?
Answer: The value was “not soluble”.

Question: Which “soluble on expression in E. coli” value does the source give for “MGSDKIHHHHHHMPPSFLWISSEVDLKVSSNGDCDHVVFLVDSHFNTCTESNYESFKVSCVAGTNTKDPTEFTKIELGHRPAGSTESPYDNSGFSVEFNGVFENSKQIECVLTRSSINREKRSSISTKKISKTKPKTQLHIFCYRICEIETKIQVISGRSIGSCRCRRNNKIIIPKNADLQILQRESESSHCHYREKNHKKLFHENSLPVMKFSVFNYNTQKW” here?
Answer: The value was “not soluble”.

Question: With “MGSDKIHHHHHHMLQNRERTYSLPQPFYSDDRLFEIDMQEIFHKEWLIAGMTCEIPTKGNFLTLQIGKNPILVVRGPDGAVNAFHNVCRHRGSRLCTAEKGKVAKLVCHYHQWTYELDGRLLYAGTEMGDDFDMKQFGLKPVHVKTAGGYIFISLAENPPAIDEFLATLKHYMEPYDMENTKVAVQTTLMEKANWKLVLENNRECYHCGGAHPELLKTLLEWDDVTDPRADQAFKDHVAASAAAWDAEKIPYAHASFGLRNRIVRMPLLKGTVSMTMDGKVGCKKLMGRIQNPELGSMRILHLPHSWNHCMGDHIIVFTVWPISAQETMVSTKWIVHKDAVEGVDYDVARMRQVWDATNDQDRRLAEENQRGINSTAYQPGPYSKTYEFGVVNFIDWYSARMLENLGAEPAPYLKGVAVNHE” as the sequence, how does the “soluble on expression in E. coli” value read?
Answer: Its value is “not soluble”.

Question: Which “soluble on expression in E. coli” value does the source give for “MGSDKIHHHHHHMSKLIVPQWPQPKGVAACSSTRIGGVSLPPYDSLNLGAHCGDNPDHVEENRKRLFAAGNLPSKPVWLEQVHGKDVLKLTGEPYASKRADASYSNTPGTVCAVMTADCLPVLFCNRAGTEVAAAHAGWRGLCAGVLEETVSCFADNPENILAWLGPAIGPRAFEVGGEVREAFMAVDAKASAAFIQHGDKYLADIYQLARQRLANVGVEQIFGGDRCTYTENETFFSYRRDKTTGRMASFIWLI” here?
Answer: The value was “soluble”.

Question: Which “soluble on expression in E. coli” value does the source give for “NLAHDTVFEVRNVTSRDRKKVRDISFSVCRGEILGFAGLVGSGRTELMNCLFGVDKRAGGEIRLNGKDISPRSPLDAVKKGMAYITESRRDNGFFPNFSIAQNIAISRSLKDGGYKGAMGLFHEVDEQRTAEAQRELLALKCHSVNQNITELSGGNQQKVLISKWLCCHPEVIIFDEPTRGIDVGAKAEIYKVMRQLADDGKVILMVSSELPEIITVCDRIAVFCEGRLTQILTNRDDMSEEEIMAWALPHE” here?
Answer: The value was “not soluble”.

Question: With “MTMLLSIIVPTFKPQKTYFEECLFSLFNQTMFHYLYEVIVVLNGDIDTQYTDMILDIFAYKPAGLYCRLIKTDQAGVSNARNLGIDAAKGQYIGFVDDDDIVSSDYLEELCKISSRNIVGVSNVHTFRKTIEEKEDNFFACRIIQQRECQYSLFRNRAILAFPVAKLIHRDIIGNRRFNPRFKNGEDALFMTEISDLIGGFRFTKEYTTYYVRERAGSASRRPLKRGQLCWDTFMLIKAYVSIYLSSPFSYNFLLFASRIPGSIKGAIKLSRNTAFFLEHHHHHH” as the sequence, how does the “soluble on expression in E. coli” value read?
Answer: The value was “not soluble”.

Question: For “RGSHHHHHHGSAVQVTFTVQKGSDPKKLVLDIKYTRPGDSLAEVELRQHGSEEWEPLTKKGNVWEVKSSKPLVGPFNFRFMSKGGMRNVFDEVIPTAFSIGKTYKPEE”, which “soluble on expression in E. coli” value is on record?
Answer: Its value is “soluble”.

Question: For “MAHHHHHHMKVENSKMEVKREQSYSNEDEEINEEDLNWWEQENLRIAMKGERRWETLAHNGVLFPPEYEPHGIPIFYDGREFKMTPEEEEVATMFAVMKEHDYYRMEVFRRNFFESWREILGKRQHPIRRLELCDFEPIYQWYLVQREKKLSRTKEEKKAIKEKQDAEAEPYRYCVWDGRREQVANFRVEPPGLFRGRGKHPLMGKLKVRVQPEDITINIGETAEVPVPPAGHKWAAVQHDHTVTWLAMWRDNVAGNMKYVMLAPSSSVKGQSDMVKFEKARKLKDKVDDIRASYMEAFKSNDLHVAQRAVAMYFIDRLALRVGNEKGEDEADTVGCCSLRVEHIQLMPDNIVRFDFLGKDSIRYQNDVAVLPEVYALLQRFTCRKSPGMDIFDQLNPTQLNDHLKSFMDGLSAKVFRTYNASITLDRWFKEKPVDPKWSTADKLAYFNKANTEVAILCNHQKSVSKNFKLQMMQLTTKSEYTRKTLELLEKAEVTAKKKSVEEAAKEFLEEQDRMQREWLESYGTEEQKKEFEEIVAKRAAPRVRSEKKSSSGTKKAKSASGKTRAATKKKSAKKSGKASSKKAARKSSKKAPKRSKEEDEDDVPLMSMAAKTKKTAGVKRQRAVKVASDDDDVPLAALRV”, which “soluble on expression in E. coli” value is on record?
Answer: The value was “not soluble”.

Question: For “MEIGDLNEVNELVSRLNNENVKIAEVNDYIQTLSAGIEEMNVQAQQLSDFAVESSSMAEKGKEISDNVALKVSKISETSREMSNAISILAEYSKKIDEIVYVISSIASQTNLLALNASIEAARAGEAGRGFAVVAENVRELADRSKKAAEQIRDLIKEMQENTNRVIEAIQENVKVTEEVKEAIQELIAAFDDIARRANETATMVKELSEGIDEQANSVQMLVERIDSISKDVSDNLNFATQLTETVKGSIEKLEVIKNKVSQLKDELDKTLEKLEV”, which “soluble on expression in E. coli” value is on record?
Answer: The value was “soluble”.

Question: Which “soluble on expression in E. coli” value does the source give for “GGALGGSIAFETVDAQDLLEGNQKLGMMLRSGYASASDGYLGGTSVYGLLSDHLGILVDVSGQNEDDYRGGSGEDALYTATKDRNYFAKLSLLDLEGHTLKVGATHNKSSGHYVSGSTGSDMGAPSASQKADFQVLKRDTYTLDHRYNPENPYVDIQTKIYRNERHLENRTSLLDVTSQTTGGSLKNVMTLDSGIFQHRFTLGGDYEQEKGIVENSLYENEAKTTGLFLQGLTRVEALKLHYGLRWDDYKSDFGPKTLSGDELSPNFGAEYELLSGLALFSNYSESVRAGGIIPLQWMAGITQSANFNNGEAFKPEISKQKEGGIKYSTRGVFADNDRMKLSATLFKTTIENLIDYTRSGGPSGKITKIFNQEEDLISKGYELKASWEKEAWATSLGFIHVEMEEGGEPVVVSRRKAASMGDRFVWDVSYQMTPELLLGYTLHAVDKLDDVPALYRRAGYVTHDLELQWRPASIKGLTWSLAVHNLLDKSYYEQSSFESGDSIVEEAGRDVRLAVKYKF” here?
Answer: Its value is “not soluble”.

Question: With “MAQEFVNCKIQPGKVVVFIKPTCPYCRRAQEILSQLPIKQGLLEFVDITATNHTNEIQDYLQQLTGARTVPRVFIGKDCIGGCSDLVSLQQSGELLTRLKQIGALQ” as the sequence, how does the “soluble on expression in E. coli” value read?
Answer: Its value is “soluble”.

Question: With “MGSDKIHHHHHHLVEKRRVMSNLETNQGRLAAIETFAERCPDCGSLLYRPKGLSKVTGKKMAGVCMNCGYKQPPTEPKNVTPDMEKEARKNRTVGYYLAYSVFSTDAIIAKDFNNFHTDGSLGQQQLKLFAVGLSNKICRNEVVHALIIGDTGVGKSHIANGILIDTQAKTGYRKTCLFIDWNALMQRLKSGMSANAQDVRMKNEKIMHEIGKADVVVIDDLGSERGSDFDRQTADDVFRMREDKATIVTTNLHGQDLNKRYGERTMSRMAKHGQGNSFGVKGILDQRKEALP” as the sequence, how does the “soluble on expression in E. coli” value read?
Answer: Its value is “not soluble”.

Question: Which “soluble on expression in E. coli” value does the source give for “MGPAKKKKKGKEKKFRRELGSWSAVELEKFIEYKAEDAGKKVIYINPKYSPQKCSRCGYVSKENRHDSVFKCKNCGFELNADLNASRNIEVIRVSEYFRLLSASQSLLFNETPLTGGAGDQRQAPKLLEHHHHHH” here?
Answer: Its value is “soluble”.

Question: With “MGSDKIHHHHHHMALYEPFPNYIWNLSVSIAMESGGQIGEIVDMCQPIIDAASNGGDAGTPQFMKQWAAYGDKLIALAAEDEARGRMFSASNKLERASLYLLVAERMQGHGAPGRKESYAKARDAFDKSTALGKINRERVEIPLGKGTMPALYTRAPGNGPHPVVVYCNGLDSCKELLYWSRLPEALARRGISTICVDQPGSGEALRLQDLPVDPHSENWASKAVDWLEQQPDVDPKRIGMTGISLGGHFAPRAVAYEPRFASGAVWGANHNWREVQDKRLKREGENPVPHYWAHVMWAFGASDMDDFMVKSEDMNLNGHMDRIKVPFLVTHGADDRQISVSYADDLYDQLVNSPRREKVIFTAREGGVEHVGADNMAYGRDCIADWFAETLGGTTA” as the sequence, how does the “soluble on expression in E. coli” value read?
Answer: Its value is “not soluble”.

Question: Which “soluble on expression in E. coli” value does the source give for “MSLSVLNAKECVSPITRSVKYHQQSAEIRALQLQSYKMAKMALDNNLKLVKDKKPAVILDLDETVLNTFDYAGYLIKNCIKYTPETWDKFEKEGSLTLIPGALDFLEYANSKGVKIFYISNRTQKNKAFTLKTLKSFKLPQVSEESVLLKEKGKPKAVRRELVAKDYAIVLQVGDTLHDFDAIFAKDAKNSQEQRAKVLQNAQKFGTEWIILPNSLYGTWEDEPIKAWQNKKEGHHHHHH” here?
Answer: Its value is “soluble”.

Question: For “MCKDVSGQNLLVAPDAINHHVKTCRENMRYMHYIAPEYENNTELTSAADIYSFGICSLEIAVIGGLSGCQNGSSEGPVTEDVIEKAIRSLEDPMQQDFIRQCLRKDPAERPSARELLFHQILFEVHSLKLLSAHAIVDSKKYEDVSESAFRIKDNETIAATSKLREMAYCQVAAFQVDLEKFLDDVRNGIYPLTAFAPLAHQPSTTLRAYSNTNPSTLITTDISAPSSTHPSANSTITAETSVNTSLPGQSSQPSGTTTNTNGPSSIGKSASPEAVDKKIGEVTSTESTSKVEVEVNGANVTIGSSNGRDAGSPTPEEEGEPNGERDMRLENRHILEINVHIENEEMSIVLLLEDQMHRQLTTSINKGDNPETLTENLITHGFMCQLDSEGVEKAIAVAFDIRAARIAEGVQEEENETSTRESNSEAPIEHGTSSSITNSVKPIVDSVAPSSQTPTTTTSS”, which “soluble on expression in E. coli” value is on record?
Answer: Its value is “not soluble”.

Question: With “AIAASSDVLRQPDKNARPLALSGHVGFDSLPDQLVNKSTSQGFCFNILCIGETGIGKSTLMDTLFNTNFENFESSHFEPKVKLRAQTYDLQESNVRLKLTVVNTVGFGDQMNKQESYQHIVDYIDTQFESYLQEELKIKRSLHNYHDSRIHACLYFIAPSGHSLKSLDLVTMKKLDSKVNIIPVIAKADTISKSELHKFKIKIMSELVSNGVQIYQFPIDDETVAKINTAMNGHLPFAVVGSTEEVNIGNKMVKARQYPWGVVQVENENHCDFVKLREMLICVNMEDLREQTHTRHYELYRRCKLEEMGFKDTDPECKPVSLQQTYEAKRQEFLGELQRREEEMRQTFVQRVKEKEAELKDAERELQGKFEQLKRLHADEKSKLEEKRRSLEEEMSVFSKRKAATELLQAQSFNTSTNNKKDKDRKNSGFM” as the sequence, how does the “soluble on expression in E. coli” value read?
Answer: Its value is “soluble”.

Question: Which “soluble on expression in E. coli” value does the source give for “MNPQTDNVFYATNAFTGEALPLAFPVHTEVEVNQAATAAAKVARDFRRLNNSKRASLLRTIASELEARSDDIIARAHLETALPEVRLTGEIARTANQLRLFADVVNSGSYHQAILDTPNPTRAPLPKPDIRRQQIALGPVAVFGASNFPLAFSAAGGDTASALAAGCPVIVKGHTAHPGTSQIVAECIEQALKQEQLPQAIFTLLQGNQRALGQALVSHPEIKAVGFTGSVGGGRALFNLAHERPEPIPFYGELGAINPTFIFPSAMRAKADLADQFVASMTMGCGQFCTKPGVVFALNTPETQAFIETAQSLIRQQSPSTLLTPGIRDSYQSQVVSRGSDDGIDVTFSQAESPCVASALFVTSSENWRKHPAWEEEIFGPQSLIVVCENVADMLSLSEMLAGSLTATIHATEEDYPQVSQLIPRLEEIAGRLVFNGWPTGVEVGYAMVHGGPYPASTHSASTSVGAEAIHRWLRPVAYQALPESLLPDSLKAENPLEIARAVDGKAAHS” here?
Answer: The value was “soluble”.

Question: With “MRRFTAFVLGLCLSLPVLAEQVQRFGDLDVHYNVFNSSFLQPNVASAVGLVRSKAQGVINVVPMEKGKPVEAAVTGSAKDLTGKVIPLEFRRVSEEGAIYNLAQFPISQRETLVFTIKVEAKGEPAQTFSFNKEIFPDE” as the sequence, how does the “soluble on expression in E. coli” value read?
Answer: The value was “not soluble”.

Question: With “MDYNNITEALQAFRTEKAYRHAPLRSCFFDMDGVLFDSMPAHARSWVEAAGECGIAAEPLDFYRWEGQKGSDTIKILFERGYGRLPTEKEIADMYGRKSQLFALYNSGNVIDDAPALVSDVCDRGLRIMLVTGSSQTDILQRLQRSYGDNFSPANMVTGADVHRGKPHPEPYLKALECVGMSPSEAFVVENAPLGVR” as the sequence, how does the “soluble on expression in E. coli” value read?
Answer: Its value is “not soluble”.

Question: For “QILVVRGQVIFPFVPFSLDVGRPRSRKIIKALKTLKTKRLVLVTQKFTGEQNPEFNDIYHVGTLCEIDEIVDVPGVDSKTVDYRIKGRGLQRVLIEKFSDADINEVSYQLLNSTVKDEANVDRFLQRIFPEKEEIEQLMEGAEKFLELENISKTVNVPKGLKQLDIITFKLANLVPNTESIKQAILEENEIANRLEKIIQA”, which “soluble on expression in E. coli” value is on record?
Answer: Its value is “soluble”.
